From patent publication US20170072028A1

Target: C3aR1 (C3a receptor) on mouse pancreatic islet cells (mouse) (UniProt O09047)
Experiment: cell-based or functional assay

Sequence of C3aR1 (C3a receptor) on mouse pancreatic islet cells (mouse) (O09047 whole entry): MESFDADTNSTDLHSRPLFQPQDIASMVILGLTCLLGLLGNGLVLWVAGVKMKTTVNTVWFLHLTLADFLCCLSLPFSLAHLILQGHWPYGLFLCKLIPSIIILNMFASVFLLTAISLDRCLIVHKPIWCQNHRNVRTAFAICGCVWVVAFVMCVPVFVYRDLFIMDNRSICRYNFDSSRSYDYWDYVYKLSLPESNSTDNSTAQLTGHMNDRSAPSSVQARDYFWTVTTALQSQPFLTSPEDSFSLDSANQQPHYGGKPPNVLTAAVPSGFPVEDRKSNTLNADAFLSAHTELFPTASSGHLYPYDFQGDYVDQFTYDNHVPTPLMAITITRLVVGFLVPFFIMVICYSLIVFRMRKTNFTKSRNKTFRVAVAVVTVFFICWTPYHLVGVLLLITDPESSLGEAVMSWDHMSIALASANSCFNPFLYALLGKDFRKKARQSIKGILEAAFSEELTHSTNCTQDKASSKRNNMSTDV

- glucose-stimulated insulin secretion assay on isolated murine islets (enhancement of insulin secretion at high glucose): 30 to 40%
Substance: Recombinant C3a protein (ligand)
